Results: patent US20170152308A1 (Biogen, published 2017)
Like-named read-outs stand apart in the source and are kept apart here. Values belong to the binder of their own block, whether it stands above or below them. No end group written: not given here.

Key:
[1] = biological target: T1, recombinant full-length His-tagged human TDP-43 (2-414) (human, UniProt Q13148 2-414); test: direct ELISA, coated antigen
T1 construct: Amino terminal His tag, made in E. coli, purified in 8 M urea; also called full length TDP-43; full-length TDP-43
In short: (§1)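 Plates coated overnight at 4° C with full-length TDP-43 at 5 μg/ml in carbonate buffer pH 9.6, with E. coli extract and BSA coated alongside. After blocking with 2% BSA, antibodies incubated 1 hr at room temperature and detected by HRP anti-human IgGγ colorimetric read-out. EC₅₀ from non-linear regression.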

[2] = biological target: T2, His-huTDP-43 domain III (amino acid residues 183-273) (human); test: direct ELISA, His-tagged TDP-43 fragments coated at 6.6 ug/ml, OD 450
T2 construct: Amino terminal His-tagged fragment, E. coli
T2 chain: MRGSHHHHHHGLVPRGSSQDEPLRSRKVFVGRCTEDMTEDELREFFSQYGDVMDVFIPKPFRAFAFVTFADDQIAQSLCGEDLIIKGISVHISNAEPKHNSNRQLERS

[3] = biological target: T3, His-huTDP-43 domain I (amino acid residues 2-106) (human); test: as above
T3 construct: Amino terminal His-tagged fragment, E. coli; also called N-terminal domain
T3 chain: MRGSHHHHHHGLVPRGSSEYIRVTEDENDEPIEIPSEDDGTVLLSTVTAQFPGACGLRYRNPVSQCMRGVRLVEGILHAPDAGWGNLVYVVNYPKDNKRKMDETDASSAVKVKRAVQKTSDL

[4] = biological target: T4, His-huTDP-43 domain IV (amino acid residues 258-414) (human, UniProt Q13148 258-414); test: as above
T4 construct: Amino terminal His-tagged fragment, E. coli, solubilized in 8 M urea; also called Glycine-rich domain

[5] = biological target: T1, recombinant full-length His-tagged …; test: direct ELISA, coated antigen; remark: listed apart in the source
In short: as §1

[6] = biological target: T5, 6xHis-SUMO-TDP-43 (220-414) (human, UniProt Q13148 220-414); test: capture ELISA, antigen held by anti-6xHis antibody
T5 construct: Captured on the plate by an anti-6xHis antibody; also called 6xHis/SUMO tagged truncated TDP-43; not shown: N-terminal 6xHis and SUMO tags from a modified pET19-b vector
In short: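 Anti-6×His antibody captured 6×His-SUMO-TDP-43 (1.7 μM, 1 hr RT) in PBS with 1% BSA, 300 mM arginine and 0.1% PEG 5000, pH 7.5, avoiding direct adsorption. Three-fold antibody titrations were incubated 1 hr RT and detected with HRP anti-human IgG Fc colorimetrically. EC₅₀ from a four-parameter logistic fit.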

[7] = biological target: T6, His-huTDP-43 domain II (amino acid residues 99-204) (human); test: direct ELISA, coated antigen; direct ELISA, domain coated at 6.6 ug/ml (Example 1, FIG. 2F)
T6 construct: Amino terminal His-tagged fragment, E. coli
T6 chain: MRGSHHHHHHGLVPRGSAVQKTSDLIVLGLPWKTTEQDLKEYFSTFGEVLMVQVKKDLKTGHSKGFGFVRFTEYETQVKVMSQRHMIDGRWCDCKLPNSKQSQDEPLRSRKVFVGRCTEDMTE
Description: (§2) Non-specific binding sites were blocked for 1 hr. at room temperature with PBST containing 2% BSA (Sigma, Buchs, Switzerland). Antibodies were incubated 1 hr. at room temperature. Binding was determined using either a donkey anti-human IgGγ-specific antibody conjugated with HRP (Jackson ImmunoResearch, USA) or a goat-anti mouse IgG (H+L)-specific secondary antibody conjugated with HRP (Jackson ImmunoResearch, USA)., followed by measurement of HRP activity in a standard colorimetric assay.
The polypeptides were coated onto ELISA plates at equal coating concentration of 6.6 μg/ml (recombinant TDP-43 and TDP-43 fragments) or 3.3 μg/ml (synthetic peptides). Binding of the human-derived antibodies was determined by direct ELISA.

[8] = biological target: T3, His-huTDP-43 domain I (amino acid …); test: direct ELISA, TDP-43 fragments coated at 6.6 ug/ml, OD 450
Description: as §2

[9] = biological target: T7, mutant TDP-43 domain IV (TDP-43 258-414 AMM321GGG) (human, UniProt Q13148 258-414); test: direct ELISA, coated antigen
T7 construct: Recombinant
T7 chain: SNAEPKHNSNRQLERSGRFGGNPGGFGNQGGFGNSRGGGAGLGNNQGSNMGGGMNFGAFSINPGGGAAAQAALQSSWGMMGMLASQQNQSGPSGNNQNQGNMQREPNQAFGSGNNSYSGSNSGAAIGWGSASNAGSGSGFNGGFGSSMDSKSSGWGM

BSA = biological target: T8, BSA (bovine, UniProt P02769); test: direct ELISA, BSA coated at 5 ug/ml as control, OD 450
T8 construct: control coating in the EC50 ELISA; also called bovine serum albumin (Sigma, Buchs, Switzerland)
Description: To determine the half maximal effective concentration (EC₅₀) of the human-derived TDP-43-specific antibodies for human TDP-43 and to evaluate target-specificity, 96 well microplates (Corning) were coated with recombinant full length TDP-43 (Biogen Idec, USA), Escherichia coli extract and BSA (Sigma, Buchs, Switzerland), diluted to a concentration of 5 μg/ml in carbonate ELISA coating buffer (pH 9.6) overnight at 4° C. […] Non-specific binding sites were blocked for 1 hr. at room temperature with PBS containing 2% BSA (Sigma, Buchs, Switzerland). Human TDP-43-specific antibodies were diluted to the indicated concentrations and incubated 1 hr. at room temperature. Binding was determined using a donkey anti-human IgGγ-specific secondary antibody conjugated with HRP (Jackson ImmunoResearch, USA), followed by measurement of HRP activity in a standard colorimetric assay. EC₅₀ values were estimated by a non-linear regression using GraphPad Prism software (San Diego, USA).
The half maximal effective concentration (EC₅₀) of the human-derived TDP-43-specific antibodies for human TDP-43 and their target target-specificity was determined substantially as described in Example 2 above. […]

[10] = biological target: T9, synthetic biotinylated peptide TDP-43 316-353 (human, biotinylated (site not stated)); test: direct ELISA, biotinylated peptide on streptavidin plate
T9 construct: On streptavidin-coated plates
T9 peptide: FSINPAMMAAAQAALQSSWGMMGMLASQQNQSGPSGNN

[11] = biological target: T10, synthetic biotinylated peptide TDP-43 316-333 (human, also: biotinylated (site not given here)); test: as above
T10 construct: On streptavidin-coated plates
T10 peptide: FSINPAMMAAAQAALQSS

[12] = biological target: T11, synthetic biotinylated peptide TDP-43 316-343 (human, biotinylated (site not stated)); test: as above
T11 construct: On streptavidin-coated plates
T11 peptide: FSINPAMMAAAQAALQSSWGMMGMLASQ

[13] = biological target: T12, TDP-43 C terminal fragment 258-319 (human, UniProt Q13148 258-319); test: direct ELISA, coated fragments
T12 construct: Recombinant fragment

[14] = biological target: T13, TDP-43 C terminal fragment 340-414 (human, UniProt Q13148 340-414); test: direct ELISA, coated fragments
T13 construct: Recombinant fragment

T8 sequence (P02769 25-607 limits assumed): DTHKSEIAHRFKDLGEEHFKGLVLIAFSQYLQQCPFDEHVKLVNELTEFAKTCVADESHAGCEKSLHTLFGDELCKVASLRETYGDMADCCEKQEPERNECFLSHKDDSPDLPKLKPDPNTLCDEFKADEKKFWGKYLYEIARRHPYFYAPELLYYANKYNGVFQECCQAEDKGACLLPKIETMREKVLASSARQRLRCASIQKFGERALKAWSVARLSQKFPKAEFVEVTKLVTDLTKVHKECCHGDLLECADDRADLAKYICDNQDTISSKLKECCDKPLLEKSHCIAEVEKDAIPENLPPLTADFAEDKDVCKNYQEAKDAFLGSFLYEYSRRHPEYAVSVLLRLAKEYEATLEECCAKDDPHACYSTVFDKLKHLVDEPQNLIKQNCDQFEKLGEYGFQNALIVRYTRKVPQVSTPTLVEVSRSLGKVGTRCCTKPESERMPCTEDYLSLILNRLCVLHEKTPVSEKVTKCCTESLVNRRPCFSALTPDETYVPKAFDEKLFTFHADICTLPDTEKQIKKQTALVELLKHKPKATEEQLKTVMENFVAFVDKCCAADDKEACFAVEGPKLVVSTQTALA

- EC50 [1]: 13.2 nM
- binding result [2]: no binding
- binding result [3]: no binding
- binding result [4]: no binding
- EC50 [5]: 13.2 nM
- binding result [6]: no binding
- binding result [7]: binds
B1: NI-205.113C4 (antibody, human IgG1, V domains shown)
VH: QVQLVQSGAEVKKPGASVKVSCKASGYTFTNYYMHWVRQAPGQGLEWMGIINPSGGRTSYAQKFQGRASMTRDTSTSTVYMEVISLRSEDTAVYYCARQRPSGYSGYGPSESYGNPTDDAFDVWGQGTTVTVSS
VL: SYVLTQPPSVSVAPGQTARITCGGNNIGSRGVHWYQQRPGQAPVLVVYDDSDRPSGIPERFSGSNSGDTATLTISRVEVGDEADYYCQVWDNSSDHLVVFGGGTKLTVL
notes: Human-derived

- binding result [8]: no binding
- binding result [9]: no binding
- binding result (BSA): no binding (tested: about 4x10^5 pM)
- binding result [10]: binds
- binding result [11]: no binding
- binding result [12]: binds
- EC50 [6]: 0.1 nM
- binding result [13]: no binding
- binding result [14]: no binding
B2: NI-205.41D1 (antibody, human IgG1, V domains shown)
VH: EVQLVESGGGLVQPGGSLRLSCAASGFTFSTYYMSWVRQAPGKGLEWVANIKQDGSEKYYVDSVKGRFTISRDNARNSLYLQMHSLRAEDTAVYYCASPPGWWGQGTLVTVSS
VL: DIVMTQTPLSLSVTPGQPASISCKSSQSLLHSDGKTYLYWYLQKPGQPPQLLIYEVSNRFSGVPDRFSGSGSGTDFTLKISRVEAEDVGVYYCMQSIQLPVTFGGGTKVEIK
notes: Human-derived; also called NI-41D1
